# Assay results published in patent US20120316071A1 (published 2012).
# Numbering of substitutions follows the chain as printed. In names and notes the source's numbering stands.
# T1: rHuman Erythropoietin R/Fc Chimera, CF (R&D Systems Cat#963-ER) (human, UniProt P19235 25-250)
# T1 construct: Bought recombinant protein; also called EPO R; EPO R/Fc; Fc part of the bought chimera not given
# T1 sequence (looked up): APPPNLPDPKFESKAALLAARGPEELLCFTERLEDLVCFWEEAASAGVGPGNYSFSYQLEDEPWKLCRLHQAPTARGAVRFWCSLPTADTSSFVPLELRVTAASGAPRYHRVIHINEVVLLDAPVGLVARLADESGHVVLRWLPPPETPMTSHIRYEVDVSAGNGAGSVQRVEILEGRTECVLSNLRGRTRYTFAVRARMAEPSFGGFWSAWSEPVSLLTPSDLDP
# B1: Fab VH3-23_IGHD2-21*01>3_IGHJ6*01 H100E/S108P/Y113G/Y110R & V2-13_IGLJ2*01 (Fab, V domains shown)
# VH: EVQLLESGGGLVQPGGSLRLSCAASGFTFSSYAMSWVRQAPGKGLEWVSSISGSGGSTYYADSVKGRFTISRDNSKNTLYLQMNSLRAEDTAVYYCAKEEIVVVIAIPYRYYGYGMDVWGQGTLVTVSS
# VL: SSELTQDPAVSVALGQTVRITCQGDSLRSYYASWYQQKPGQAPVLVIYGKNNRPSGIPDRFSGSSSGNTASLTITGAQAEDEADYYCNSRDSSGNHLVVFGGGTKLTVL
# notes: Fab made in E. coli: VH joined to CH1 (with His and Flag tags, plasmid A) and VL to lambda CL (plasmid E); also called EPG Y110R
# B2: Fab VH3-23_IGHD2-21*01>3_IGHJ6*01 H100E/S108P/Y113G/Y111S & V2-13_IGLJ2*01 (Fab, V domains shown)
# VH: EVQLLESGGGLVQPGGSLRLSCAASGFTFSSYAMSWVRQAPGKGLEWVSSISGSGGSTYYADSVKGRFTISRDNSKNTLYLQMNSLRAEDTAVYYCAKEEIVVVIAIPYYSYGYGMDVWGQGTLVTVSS
# VL: B1 VL
# notes: Fab made in E. coli: VH joined to CH1 (with His and Flag tags, plasmid A) and VL to lambda CL (plasmid E); also called EPG Y111S
# B3: Fab VH3-23_IGHD2-21*01>3_IGHJ6*01 H100E/S108P/Y113G/Y111T & V2-13_IGLJ2*01 (Fab, V domains shown)
# VH: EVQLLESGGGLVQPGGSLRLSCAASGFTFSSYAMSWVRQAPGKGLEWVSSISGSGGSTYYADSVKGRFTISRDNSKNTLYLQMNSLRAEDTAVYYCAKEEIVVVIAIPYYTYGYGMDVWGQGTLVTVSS
# VL: B1 VL
# notes: Fab made in E. coli: VH joined to CH1 (with His and Flag tags, plasmid A) and VL to lambda CL (plasmid E); also called EPG Y111T
# B4: Fab VH1-46_IGHD6-6*01_IGHJ1*01 S102A/S103P/S104F/H111F F29A & L6_IGKJ1*01 (Fab, V domains shown)
# VH: QVQLVQSGAEVKKPGASVKVSCKASGYTATSYYMHWVRQAPGQGLEWMGIINPSGGSTSYAQKFQGRVTMTRDTSTSTVYMELSSLRSEDTAVYYCAREEYAPFSAEYFQFWGQGTLVTVSS
# VL: not shown
# notes: Tested as Fab (CH1 with His6/Flag tags; kappa CL), expressed in E. coli; also called APFF F29A
# B5: Fab VH1-46_IGHD6-6*01_IGHJ1*01 S102A/S103P/S104F/H111F S31A & L6_IGKJ1*01 (Fab, V domains shown)
# VH: B4 VH with A29F, S31A
# VL: not shown
# notes: Tested as Fab (CH1 with His6/Flag tags; kappa CL), expressed in E. coli; also called APFF S31A
# B6: Fab VH1-46_IGHD6-6*01_IGHJ1*01 S102A/S103P/S104F/H111F T30A & L6_IGKJ1*01 (Fab, V domains shown)
# VH: B4 VH with A29F, T30A
# VL: not shown
# notes: Tested as Fab (CH1 with His6/Flag tags; kappa CL), expressed in E. coli; also called APFF T30A
# B7: Fab VH1-46_IGHD6-6*01_IGHJ1*01 S102A/S103P/S104F/H111F Y33A & L6_IGKJ1*01 (Fab, V domains shown)
# VH: B4 VH with A29F, Y33A
# VL: not shown
# notes: Tested as Fab (CH1 with His6/Flag tags; kappa CL), expressed in E. coli; also called APFF Y33A
# B8: Fab VH1-46_IGHD6-6*01_IGHJ1*01 S102A/S103P/S104F/H111F T28A & L6_IGKJ1*01 (Fab, V domains shown)
# VH: B4 VH with T28A, A29F
# VL: not shown
# notes: Tested as Fab (CH1 with His6/Flag tags; kappa CL), expressed in E. coli; also called APFF T28A
# Biological target: T2, rHuman ErbB2/Fc Chimera, CF (R&D Systems Cat#1129-ER) (human, UniProt P04626 23-652)
# T2 construct: Bought recombinant protein; also called human epidermal growth factor 2 receptor; Fc part of the bought chimera not given
# Test: ECL (MSD) multispot binding assay, antigen spotted on plate, 20 nM Fab;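 note: purified Fab incubated 1 h at 20 °C on antigen-spotted plate, bound Fab revealed with TAG detection antibody, ECL read, antigen signal divided by same-well blank, ratio ≥4 counted as hit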
row,Binder,ECL signal/blank ratio
1,B1,2.1
2,B2,2.1

# Biological target: T3, rHuman P-Cadherin/Fc Chimera, CF (R&D Systems Cat#861-PC) (human, UniProt P22223 108-654)
# T3 construct: Bought recombinant protein; Fc part of the bought chimera not given
# Test: as above
row,Binder,ECL signal/blank ratio
1,B2,5
2,B3,6.2

# Biological target: T4, rHuman IGF-1 sR, (IGF-1 sR), CF (R&D Systems Cat#391-GR) (human, UniProt P08069 31-932)
# T4 construct: Bought recombinant soluble receptor; also called insulin-like growth factor-1 soluble receptor
# Test: as above
row,Binder,ECL signal/blank ratio
1,B1,1.4
2,B2,1.3
3,B3,1.2

# Biological target: T5, rHuman EGF R/Fc Chimera, CF (R&D Systems Cat#344-ER) (human, UniProt P00533 25-645)
# T5 construct: Bought recombinant protein; also called epidermal growth factor receptor; Fc part of the bought chimera not given
# Test: as above
row,Binder,ECL signal/blank ratio
1,B1,1.6
2,B2,1.8

# Biological target: T1, rHuman Erythropoietin R/Fc Chimera, CF …
# Test: as above
row,Binder,ECL signal/blank ratio
1,B1,4.8
2,B2,30.1
3,B3,38.8

# Biological target: T6, Recombinant Human DLL4 (R&D Systems Cat#1506-D4/CF) (human, UniProt Q9NR61 27-524)
# T6 construct: Bought recombinant protein; also called delta-like protein 4; rHuman DLL4
# Test: as above
row,Binder,ECL signal/blank ratio
1,B1,1.8
2,B2,1.7
3,B3,2.2

# Biological target: T7, rHuman Notch-1/Fc Chimera, CF (R&D Systems Cat#3647-TK) (human, UniProt P46531 19-526)
# T7 construct: Bought recombinant protein; Fc part of the bought chimera not given
# Test: as above
row,Binder,ECL signal/blank ratio
1,B1,1.6
2,B2,1.9
3,B3,2

# Biological target: T8, rHuman CD44/Fc Chimera, CF (R&D Systems Cat#3660-CD) (human, UniProt P16070 21-220)
# T8 construct: Bought recombinant protein; Fc part of the bought chimera not given
# Test: as above
row,Binder,ECL signal/blank ratio
1,B1,1.3
2,B2,1.2
3,B3,1.8

# Biological target: T9, Recombinant Human DLL4 (R&D Systems Cat#1506-D4/CF) (human, UniProt Q9NR61 27-524)
# T9 construct: Bought recombinant protein; also called delta-like protein 4; rHuman DLL4
# Test: ELISA, DLL4 coated, 100 nM Fab, absorbance at 450 nm minus noise
row,Binder,ELISA (Signal-Noise)
1,B4,0.67
2,B5,0.47
3,B6,0.64
4,B7,0.09
5,B8,0.77

# Biological target: T9, Recombinant Human DLL4 (R&D Systems …)
# Test: ECL Multispot (MSD), DLL4 spotted, 10 nM Fab
row,Binder,ECL Signal/Noise
1,B4,190
2,B5,453
3,B6,457
4,B7,136
5,B8,334
